# Laboratory results from US11584938B2, “Plant EPSPS mutant containing L195P and S247G mutations and encoding gene and use thereof” (GEVOTO LLC, priority 2017, dated 2023).
# Test system: double knockout E. coli (EPSPS defective E. coli, EDCE)
# Assay: growth of EPSPS defective E. coli transformed by the EPSPS gene in M9 culture media containing different glyphosate concentrations
# Type: cell-based, E. coli DH5α
# Excerpt: A method for detecting the glyphosate resistance of the soybean EPSPS mutant G1 provided in Example 1 and the soybean EPSPS mutant G3 provided in Example 2 is as follows:
# according to the sequence of the nucleic acid molecule provided in the example, synthesizing the encoding gene that encodes the soybean EPSPS mutant G1 or G3 using a chemical synthesis method, introducing enzyme sites (Pac1 and Sbf1) at two ends thereof, connecting to an expression vector (for example, a pADV5 vector, the structure of which is as shown in FIG. 15) that has undergone the same restriction enzyme digestion treatment under the action of ligase after restriction enzyme digestion, then transforming double knockout E. coli, picking positive colonies after verification, inoculating the positive colonies to M9 culture media containing different glyphosate concentrations for growth, and observing the growth situation of the E. coli.
# The wild-type soybean EPSPS (with an amino acid sequence represented by SEQ ID NO: 2 and an encoding gene sequence represented by SEQ ID NO: 1) and the soybean EPSPS mutant G2 (with an amino acid sequence represented by SEQ ID NO: 6, and a corresponding encoding gene sequence represented by SEQ ID NO: 5) merely containing the mutation P114(101)S were taken as controls.
# In the above, the M9 basal culture medium can be prepared by the following method:
# 5×M9 salt solution: 6.78 g of Na2HPO4, 3.0 g of KH2PO4, 0.5 g of NaCl, and 1.0 g of NH4Cl were weighed, added with ddH2O to 200 ml, and subjected to high-temperature and high-pressure sterilization treatment;
# 20% glucose: 20 g of glucose was weighed, added with 80 ml of ddH2O for dissolving, diluted to 100 ml, and subjected to filtration and sterilization treatment;
# 1.0 M MgSO4: 24.6 g of MgSO4-7H2O was weighed, dissolved with 80 ml of ddH2O, diluted to 100 ml, and subjected to sterilization treatment;
# 1.0 M CaCl2: 11.1 g of CaCl2 was weighed, dissolved with 80 ml of ddH2O, diluted to 100 ml, and subjected to sterilization treatment; and
# 1000 ml of the M9 basal culture media were prepared by adding ddH2O to 200 ml of 5×M9 salt solution, 20 ml of 20% glucose, 2 ml of 1.0 M MgSO4 and 0.1 ml of 1.0 M CaCl2 to make up to 1000 ml.
# In the above, the E. coli used was double knockout E. coli, namely, EPSPS defective E. coli (E. coli DH5α with EPSPS gene and C-P Lyase gene being knocked out, named as EDCE, wherein for a preparation method thereof, reference can be made to a Chinese invention patent with the filing number CN2016103256926).
# The glyphosate resistance of the soybean EPSPS mutant G4 provided in Example 3 and the soybean EPSPS mutant G5 provided in Example 4 was verified with reference to the detection method in Experiment Example 1.
# The wild-type wheat EPSPS (with an amino acid sequence represented by SEQ ID NO: 14, and a corresponding encoding gene sequence represented by SEQ ID NO: 13) and the wheat EPSPS mutant T2 (with an amino acid sequence represented by SEQ ID NO: 18, and a corresponding encoding gene sequence represented by SEQ ID NO: 17) merely containing the mutation P118(101)S were taken as controls to verify the glyphosate resistance of the wheat EPSPS mutants T1 and T3 provided in Example 5 and Example 6, and reference can be made to Experiment Example 1 for the method.
# A method for verifying the glyphosate resistance of the wheat EPSPS mutants T4, T5, and T6 provided in Examples 7-9 is the same as that in Experiment Example 3.
# The wild-type rice EPSPS R0 (with an amino acid sequence represented by SEQ ID NO: 28, and a corresponding encoding gene sequence represented by SEQ ID NO: 27) and the rice EPSPS mutant R2 (with an amino acid sequence represented by SEQ ID NO: 32, and a corresponding encoding gene sequence represented by SEQ ID NO: 31) merely containing the mutation P116(101)S were taken as controls to verify the glyphosate resistance of the rice EPSPS mutants R1 and R3 provided in Examples 10 and 11, and reference can be made to Experiment Example 1 for the method. […]
# [1] = culture media containing 0 mM glyphosate
# [2] = culture media containing 1 mM glyphosate
Molecule,growth of the E. coli transformed by the EPSPS [1],growth of the E. coli transformed by the EPSPS [2],growth of the E. coli transformed by the EPSPS (culture media containing 5 mM glyphosate),growth of the transformed E. coli compared with E. coli transformed by the control EPSPS named in the value [2],growth of the E. coli transformed by the EPSPS (culture media containing 10 mM glyphosate),growth of the E. coli transformed by the EPSPS (culture media containing 20 mM glyphosate)
"G0: wild-type soybean EPSPS, amino acid sequence SEQ ID NO: 2; control (protein, Glycine max, control) MAAAEKPSTAPEIVLEPIKDISGTITLPGSKSLSNRILLLAALSEGTTVVDNLLYSEDIHYMLGALRTLGLRVEDDQTTKQAIVEGCGGLFPTIKESKDEINLFLGNAGTAMRPLTAAVVAAGGNASYVLDGVPRMRERPIGDLVAGLKQLGADVDCFLGTNCPPVRVNGKGGLPGGKVKLSGSVSSQYLTALLMAAPLALGDVEIEIVDKLISVPYVEMTLKLMERFGVSVEHSGDWDKFLVHGGQKYKSPGNAFVEGDASSASYFLAGAAVTGGTITVNGCGTSSLQGDVKFAEVLEKMGAKVTWSENSVTVTGPPQDSSGQKVLQGIDVNMNKMPDVAMTLAVVALFANGQTTIRDVASWRVKETERMIAICTELRKLGATVEEGPDYCVITPPEKLNVTAIDTYDDHRMAMAFSLAACGDVPVTIKDPGCTRKTFPDYFEVLERFTRH",could grow,substantially could not grow,substantially could not grow,–,–,–
"G1: soybean EPSPS mutant, SEQ ID NO: 4, mutation L212(195)P (protein) MAAAEKPSTAPEIVLEPIKDISGTITLPGSKSLSNRILLLAALSEGTTVVDNLLYSEDIHYMLGALRTLGLRVEDDQTTKQAIVEGCGGLFPTIKESKDEINLFLGNAGTAMRPLTAAVVAAGGNASYVLDGVPRMRERPIGDLVAGLKQLGADVDCFLGTNCPPVRVNGKGGLPGGKVKLSGSVSSQYLTALLMAAPLALGDVEIEIVDKPISVPYVEMTLKLMERFGVSVEHSGDWDKFLVHGGQKYKSPGNAFVEGDASSASYFLAGAAVTGGTITVNGCGTSSLQGDVKFAEVLEKMGAKVTWSENSVTVTGPPQDSSGQKVLQGIDVNMNKMPDVAMTLAVVALFANGQTTIRDVASWRVKETERMIAICTELRKLGATVEEGPDYCVITPPEKLNVTAIDTYDDHRMAMAFSLAACGDVPVTIKDPGCTRKTFPDYFEVLERFTRH",could grow,–,–,obviously superior to that of the E. coli transformed by G0,–,–
"G2: soybean EPSPS mutant, SEQ ID NO: 6, merely containing the mutation P114(101)S; control (protein) MAAAEKPSTAPEIVLEPIKDISGTITLPGSKSLSNRILLLAALSEGTTVVDNLLYSEDIHYMLGALRTLGLRVEDDQTTKQAIVEGCGGLFPTIKESKDEINLFLGNAGTAMRSLTAAVVAAGGNASYVLDGVPRMRERPIGDLVAGLKQLGADVDCFLGTNCPPVRVNGKGGLPGGKVKLSGSVSSQYLTALLMAAPLALGDVEIEIVDKLISVPYVEMTLKLMERFGVSVEHSGDWDKFLVHGGQKYKSPGNAFVEGDASSASYFLAGAAVTGGTITVNGCGTSSLQGDVKFAEVLEKMGAKVTWSENSVTVTGPPQDSSGQKVLQGIDVNMNKMPDVAMTLAVVALFANGQTTIRDVASWRVKETERMIAICTELRKLGATVEEGPDYCVITPPEKLNVTAIDTYDDHRMAMAFSLAACGDVPVTIKDPGCTRKTFPDYFEVLERFTRH",could grow,–,–,–,could grow,could grow
